Measured values published in publication PMC7700883.

Legend:
[1] = molecular target: ubiquitin aminomethylcoumarin (UniProt P0CG48)
[2] = molecular target: GST-tagged ChlaDUB1_(130–401) (C345A) (Chlamydia trachomatis L2) (UniProt B0B9A0); assay: BLI
[3] = molecular target: GST-tagged ChlaDUB2_(58–339) (C282A) (Chlamydia trachomatis L2) (UniProt B0B999); assay: BLI

Row | Substance | attenuation of Ub-AMC hydrolysis activity against wild type ChlaDUB2(58-339) [1] | Kd [2] | Kd [3]
1 | ChlaDUB2_(58–339) W92A (from UniProt B0B999 58-339) (domain or fragment) | 50% |  | 
2 | Lys63-linked diubiquitin (from UniProt P0CG48 1-76) (complex) |  | 117 µM | 88.9 µM
